Experimental data reported in paper PMC9541495, “Understanding the interaction of 14‐3‐3 proteins with hDMX and hDM2: a structural and biophysical study” (The Febs Journal, 2022).
[ ]: non-standard residue; d: D form. pS = N[C@@H](COP(=O)(O)O)C(=O)O; FAM = 5,6-carboxyfluorescein; Ahx = NCCCCCC(=O)O

T1: 14‐3‐3η (human, UniProt Q04917 1-246)
T1 construct: 14-3-3 eta, human, full-length protein from the pProEx HTb-His-14-3-3 construct; Captured on an NTA chip in SPR; source: E. coli BL21(DE3), purified (Ni2+-NTA, dialysis)
T1 sequence (looked up): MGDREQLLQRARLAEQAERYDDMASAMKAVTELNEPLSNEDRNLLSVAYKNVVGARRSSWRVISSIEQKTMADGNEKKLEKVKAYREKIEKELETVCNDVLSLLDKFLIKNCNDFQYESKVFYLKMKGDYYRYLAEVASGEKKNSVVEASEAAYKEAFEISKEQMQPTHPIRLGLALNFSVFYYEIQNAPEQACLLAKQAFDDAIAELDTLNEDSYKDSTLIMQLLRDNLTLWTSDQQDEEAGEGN

T2: 14‐3‐3τ (human, UniProt P27348 1-245)
T2 construct: 14-3-3 tau/theta, human, full-length protein from the pProEx HTb-His-14-3-3 construct; Written as the protomer; tag removal is told only for the ∆C proteins; also called τ/θ; source: E. coli BL21(DE3), purified (Ni2+-NTA, dialysis)
T2 sequence (looked up): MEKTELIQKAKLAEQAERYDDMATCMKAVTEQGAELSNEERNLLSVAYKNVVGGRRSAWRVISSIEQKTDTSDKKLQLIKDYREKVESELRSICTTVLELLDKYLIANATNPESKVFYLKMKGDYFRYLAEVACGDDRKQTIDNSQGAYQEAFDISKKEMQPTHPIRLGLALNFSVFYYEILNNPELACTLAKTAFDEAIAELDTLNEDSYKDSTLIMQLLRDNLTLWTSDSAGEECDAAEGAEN

T3: 14‐3‐3ζ (human, UniProt P63104 1-245)
T3 construct: 14-3-3 zeta, human, full-length protein from the pProEx HTb-His-14-3-3 construct; Written as the protomer; tag removal is told only for the ∆C proteins; source: E. coli BL21(DE3), purified (Ni2+-NTA, dialysis)
T3 sequence (looked up): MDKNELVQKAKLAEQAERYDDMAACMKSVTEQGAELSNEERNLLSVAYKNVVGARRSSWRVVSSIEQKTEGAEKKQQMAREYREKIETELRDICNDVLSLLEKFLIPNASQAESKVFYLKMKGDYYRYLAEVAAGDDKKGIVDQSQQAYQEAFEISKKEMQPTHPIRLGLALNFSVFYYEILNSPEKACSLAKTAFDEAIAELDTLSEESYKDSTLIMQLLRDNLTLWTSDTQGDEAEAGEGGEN

T4: 14‐3‐3σ (human, UniProt P31947 1-248)
T4 construct: 14-3-3 sigma, human, full-length protein from the pProEx HTb-His-14-3-3 construct (used in the FA assays); Written as the protomer; tag removal is told only for the ∆C proteins; source: E. coli BL21(DE3), purified (Ni2+-NTA, dialysis)
T4 sequence (looked up): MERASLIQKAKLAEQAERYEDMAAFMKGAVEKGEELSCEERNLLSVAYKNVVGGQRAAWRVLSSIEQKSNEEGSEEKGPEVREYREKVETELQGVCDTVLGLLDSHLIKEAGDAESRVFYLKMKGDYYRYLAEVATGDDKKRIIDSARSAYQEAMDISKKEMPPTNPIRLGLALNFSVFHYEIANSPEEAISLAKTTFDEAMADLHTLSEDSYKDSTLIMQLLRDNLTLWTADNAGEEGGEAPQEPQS

T5: 14‐3‐3ε (human, UniProt P62258 1-255)
T5 construct: 14-3-3 epsilon, human, full-length protein from the pProEx HTb-His-14-3-3 construct; Written as the protomer; tag removal is told only for the ∆C proteins; source: E. coli BL21(DE3), purified (Ni2+-NTA, dialysis)
T5 sequence (looked up): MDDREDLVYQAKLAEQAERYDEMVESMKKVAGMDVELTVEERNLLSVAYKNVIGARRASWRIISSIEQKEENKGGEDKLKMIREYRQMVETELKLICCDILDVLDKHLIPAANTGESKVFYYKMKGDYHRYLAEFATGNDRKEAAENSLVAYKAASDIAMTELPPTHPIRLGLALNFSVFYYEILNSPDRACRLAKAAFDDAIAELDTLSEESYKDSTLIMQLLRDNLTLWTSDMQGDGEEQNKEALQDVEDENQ

B1: Ac‐hDMX_(361‐374) ^pSer367 (peptide)
peptide: Ac-DCRRTI[pS]APVVRPK-NH2
SMILES: CC[C@H](C)[C@H](NC(=O)[C@@H](NC(=O)[C@H](CCCNC(=N)N)NC(=O)[C@H](CCCNC(=N)N)NC(=O)[C@H](CS)NC(=O)[C@H](CC(=O)O)NC(C)=O)[C@@H](C)O)C(=O)N[C@@H](COP(=O)(O)O)C(=O)N[C@@H](C)C(=O)N1CCC[C@H]1C(=O)N[C@H](C(=O)N[C@H](C(=O)N[C@@H](CCCNC(=N)N)C(=O)N1CCC[C@H]1C(=O)N[C@@H](CCCCN)C(N)=O)C(C)C)C(C)C
notes: Acetylated form used for ITC, SPR and crystallography; source: synthetic peptide (Fmoc SPPS, HPLC purified)
B2: FAM‐Ahx‐hDMX_(335‐373) ^pSer342/pSer367 (peptide)
peptide: {FAM-Ahx}-SKLTHSL[pS]TSDITAIPEKENEGNDVPDCRRTI[pS]APVVRP-NH2
notes: hDMX (human double minute 4 protein, hDM4), human, residues 335-373; Tracer form used in the FA assays; source: synthetic peptide (Fmoc SPPS on Rink amide ProTide resin, HPLC purified)
B3: Ac‐hDMX_(335‐373) ^pSer342/pSer367 (peptide)
peptide: Ac-SKLTHSL[pS]TSDITAIPEKENEGNDVPDCRRTI[pS]APVVRP-NH2
SMILES: CC[C@H](C)[C@H](NC(=O)[C@H](CC(=O)O)NC(=O)[C@H](CO)NC(=O)[C@@H](NC(=O)[C@H](COP(=O)(O)O)NC(=O)[C@H](CC(C)C)NC(=O)[C@H](CO)NC(=O)[C@H](Cc1c[nH]cn1)NC(=O)[C@@H](NC(=O)[C@H](CC(C)C)NC(=O)[C@H](CCCCN)NC(=O)[C@H](CO)NC(C)=O)[C@@H](C)O)[C@@H](C)O)C(=O)N[C@H](C(=O)N[C@@H](C)C(=O)N[C@H](C(=O)N1CCC[C@H]1C(=O)N[C@@H](CCC(=O)O)C(=O)N[C@@H](CCCCN)C(=O)N[C@@H](CCC(=O)O)C(=O)N[C@@H](CC(N)=O)C(=O)N[C@@H](CCC(=O)O)C(=O)NCC(=O)N[C@@H](CC(N)=O)C(=O)N[C@@H](CC(=O)O)C(=O)N[C@H](C(=O)N1CCC[C@H]1C(=O)N[C@@H](CC(=O)O)C(=O)N[C@@H](CS)C(=O)N[C@@H](CCCNC(=N)N)C(=O)N[C@@H](CCCNC(=N)N)C(=O)N[C@H](C(=O)N[C@H](C(=O)N[C@@H](COP(=O)(O)O)C(=O)N[C@@H](C)C(=O)N1CCC[C@H]1C(=O)N[C@H](C(=O)N[C@H](C(=O)N[C@@H](CCCNC(=N)N)C(=O)N1CCC[C@H]1C(N)=O)C(C)C)C(C)C)[C@@H](C)CC)[C@@H](C)O)C(C)C)[C@@H](C)CC)[C@@H](C)O
notes: hDMX (human double minute 4 protein, hDM4), human, residues 335-373; Acetylated form used for ITC, SPR and crystallography; source: synthetic peptide (Fmoc SPPS on Rink amide ProTide resin, HPLC purified)
B4: 14‐3‐3γ (natural protein, human, UniProt P61981 1-247, looked up)
chain: MVDREQLVQKARLAEQAERYDDMAAAMKNVTELNEPLSNEERNLLSVAYKNVVGARRSSWRVISSIEQKTSADGNEKKIEMVRAYREKIEKELEAVCQDVLSLLDNYLIKNCSETQYESKVFYLKMKGDYYRYLAEVATGEKRATVVESSEKAYSEAHEISKEHMQPTHPIRLGLALNYSVFYYEIQNAPEQACHLAKTAFDDAIAELDTLNEDSYKDSTLIMQLLRDNLTLWTSDQQDDDGGEGNN
notes: 14-3-3 gamma, human, full-length protein from the pProEx HTb-His-14-3-3 construct; Written as the protomer; tag removal is told only for the ∆C proteins; source: E. coli BL21(DE3), purified (Ni2+-NTA, dialysis)
B5: 14‐3‐3β (natural protein, human, UniProt P31946 1-246, looked up)
chain: MTMDKSELVQKAKLAEQAERYDDMAAAMKAVTEQGHELSNEERNLLSVAYKNVVGARRSSWRVISSIEQKTERNEKKQQMGKEYREKIEAELQDICNDVLELLDKYLIPNATQPESKVFYLKMKGDYFRYLSEVASGDNKQTTVSNSQQAYQEAFEISKKEMQPTHPIRLGLALNFSVFYYEILNSPEKACSLAKTAFDEAIAELDTLNEESYKDSTLIMQLLRDNLTLWTSENQGDEGDAGEGEN
notes: 14-3-3 beta, human, full-length protein from the pProEx HTb-His-14-3-3 construct; Written as the protomer; tag removal is told only for the ∆C proteins; source: E. coli BL21(DE3), purified (Ni2+-NTA, dialysis)
B6: Ac‐hDMX_(335‐349) ^pSer342 (peptide)
peptide: Ac-SKLTHSL[pS]TSDITAI-NH2
SMILES: CC[C@H](C)[C@H](NC(=O)[C@H](C)NC(=O)[C@@H](NC(=O)[C@@H](NC(=O)[C@H](CC(=O)O)NC(=O)[C@H](CO)NC(=O)[C@@H](NC(=O)[C@H](COP(=O)(O)O)NC(=O)[C@H](CC(C)C)NC(=O)[C@H](CO)NC(=O)[C@H](Cc1c[nH]cn1)NC(=O)[C@@H](NC(=O)[C@H](CC(C)C)NC(=O)[C@H](CCCCN)NC(=O)[C@H](CO)NC(C)=O)[C@@H](C)O)[C@@H](C)O)[C@@H](C)CC)[C@@H](C)O)C(N)=O
notes: hDMX (human double minute 4 protein, hDM4), human, residues 335-349; Acetylated form used for ITC and SPR; source: synthetic peptide (Fmoc SPPS, HPLC purified)

Experiments:
Settings in all cases: both partners purified
[1] = target: T1, 14‐3‐3η; assay: ITC; acetylated peptide in the syringe titrated into 14-3-3η in the cell; 25 °C; 25 mM HEPES pH 7.5, 100 mM NaCl, 10 mM MgCl2, 0.5 mM TCEP; MicroCal iTC200
[2] = target: T1, 14‐3‐3η; assay: SPR; 14-3-3η immobilised on an NTA sensor chip (Ni2+ capture and amine coupling, about 2000 RU); acetylated peptides injected, 11 serial dilutions from 10x the FA Kd; 25 °C; Biacore T200; multicycle kinetics fitted to a Langmuir model, Kd from steady state dose-response
[3] = target: T2, 14‐3‐3τ; assay: fluorescence polarisation; fluorescence anisotropy, direct titration: 14-3-3 protein titrated (1/2 dilution series) against 50 nM FAM-Ahx tracer peptide; 10 mM HEPES, 150 mM NaCl, 0.1% Tween 20, 0.1% BSA, pH 7.4; 384 well plates, triplicates; protein concentration as 14-3-3 monomer; 1:1 fit, biphasic curves fitted as two separate 1:1 events (Kd1, Kd2)
[4] = target: T3, 14‐3‐3ζ; assay: as above
[5] = target: T4, 14‐3‐3σ; assay: as above
[6] = target: T5, 14‐3‐3ε; assay: as above
[7] = target: B2; assay: as above
[8] = target: T6, FAM‐Ahx‐hDM2_(160‐192) ^pSer166/pSer186 (human, phosphoserine at 166 and at 186; N-terminal FAM-Ahx (5,6-carboxyfluorescein on an aminohexanoic acid linker); C-terminal amide); assay: as above
T6 construct: hDM2 (human double minute 2 protein), human, residues 160-192; Tracer form used in the FA assays; source: synthetic peptide (Fmoc SPPS on Rink amide ProTide resin, HPLC purified)

Kd [1] [nM]	dH [1] [kJ/mol]	stoichiometry N [1]	Kd [2] [nM]	koff [2] [s⁻¹]	kon [2] [M⁻¹ s⁻¹]	Kd1 (first binding event) [7] [µM]	Binder	also measured
870 ± 95	-16.1 ± 0.2	1.28	189	0.121	389000		B1	
							B2	binding result [3]: binds; binding result [4]: binds; binding result [5]: binds; binding result [6]: binds
14 ± 10	-22.1 ± 0.7	0.94	8.6	0.0048	1.51e+06		B3	
						0.091 ± 0.015	B4	Kd1 (first binding event) [8]: 0.089 ± 0.01 µM
						0.026 ± 0.099	B5	
21000 ± 3000	-21.4 ± 1	0.72	37000				B6	
